In patent US20200079833A1 (AstraZeneca / MedImmune, published 2020):
Starred links: 1 amine or outer side, 2 acyl side, 3 side chain; linkers in the order of their positions; H or OH if unused. Non-standard residues stand in square brackets, D forms with d. Groups on a side chain read outwards from the residue. Primed or numbered codes have the meaning given here. No end group written: not given here. *: point of attachment. γGlu = O=C(O)[C@H](CCC(=O)[*:2])N[*:1]; αMeF = C[C@](N)(Cc1ccccc1)C(=O)O; αMeK = C[C@](N)(CCCCN)C(=O)O; Lauroyl = CCCCCCCCCCCC(=O)*; αMeS = C[C@](N)(CO)C(=O)O; PEG2′ = not defined here; Aib = CC(C)(N)C(=O)O; Ahx = NCCCCCC(=O)O

Legend:
Test in all cases: cell-based or functional assay
GLP-1 receptor (GLP-1R) = GLP-1 receptor (GLP-1R) (human, UniProt P43220 24-463)
[1] = biological target: T1, glucose-dependent insulinotropic peptide (gastric inhibitory polypeptide) receptor (GIPR) (human, UniProt P48546 22-466)
T1 sequence (looked up): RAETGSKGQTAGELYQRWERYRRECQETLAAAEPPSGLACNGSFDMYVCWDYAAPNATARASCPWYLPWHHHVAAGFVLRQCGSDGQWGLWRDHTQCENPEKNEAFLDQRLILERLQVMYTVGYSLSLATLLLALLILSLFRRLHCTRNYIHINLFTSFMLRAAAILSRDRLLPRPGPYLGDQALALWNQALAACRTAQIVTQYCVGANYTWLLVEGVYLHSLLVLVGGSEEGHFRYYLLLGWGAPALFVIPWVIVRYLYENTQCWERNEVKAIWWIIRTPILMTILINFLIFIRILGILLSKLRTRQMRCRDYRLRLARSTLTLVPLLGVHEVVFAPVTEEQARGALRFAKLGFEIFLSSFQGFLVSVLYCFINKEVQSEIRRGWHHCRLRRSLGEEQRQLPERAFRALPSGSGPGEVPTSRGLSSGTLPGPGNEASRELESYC

glucagon receptor (GCGR) = glucagon receptor (GCGR) (human, UniProt P47871 26-477)
Chain of glucagon receptor (GCGR) (P47871 26-477): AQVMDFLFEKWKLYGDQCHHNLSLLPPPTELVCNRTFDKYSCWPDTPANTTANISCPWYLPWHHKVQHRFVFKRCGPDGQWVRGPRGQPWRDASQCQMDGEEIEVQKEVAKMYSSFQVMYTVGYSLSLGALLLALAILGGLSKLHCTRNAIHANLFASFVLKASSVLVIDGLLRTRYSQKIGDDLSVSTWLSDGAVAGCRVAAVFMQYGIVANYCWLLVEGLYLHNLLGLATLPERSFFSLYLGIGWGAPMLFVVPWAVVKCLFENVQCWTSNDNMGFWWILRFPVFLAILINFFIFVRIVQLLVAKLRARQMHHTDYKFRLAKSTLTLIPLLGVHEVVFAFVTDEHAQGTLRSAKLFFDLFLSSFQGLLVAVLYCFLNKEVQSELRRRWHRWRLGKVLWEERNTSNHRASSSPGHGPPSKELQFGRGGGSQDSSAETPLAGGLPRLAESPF

Binder | cAMP Mean pM GLP-1R (GLP-1 receptor (GLP-1R)) [pM] | cAMP Primary assay EC50 GLP-1R n1 (GLP-1 receptor (GLP-1R)) [pM] | cAMP Primary assay EC50 GLP-1R n2 (GLP-1 receptor (GLP-1R)) [pM] | cAMP Primary assay EC50 GIP-R [1] [nM] | cAMP Primary assay EC50 GIP-R (2nd) [1] [nM] | cAMP Primary assay EC50 Gluc-R (glucagon receptor (GCGR)) [nM] | cAMP Primary assay EC50 Gluc-R (2nd) (glucagon receptor (GCGR)) [nM]
H[Aib]EGS[αMeF]TSDV[αMeS]S[αMeF]LEGEAAK([Ahx-Lauroyl])E[αMeF]IA[αMeF]VV[αMeK]GG-NH2 (N-terminus assumed; SMILES CCCCCCCCCCCC(=O)NCCCCCC(=O)NCCCC[C@H](NC(=O)[C@H](C)NC(=O)[C@H](C)NC(=O)[C@H](CCC(=O)O)NC(=O)CNC(=O)[C@H](CCC(=O)O)NC(=O)[C@H](CC(C)C)NC(=O)[C@](C)(Cc1ccccc1)NC(=O)[C@H](CO)NC(=O)[C@](C)(CO)NC(=O)[C@@H](NC(=O)[C@H](CC(=O)O)NC(=O)[C@H](CO)NC(=O)[C@@H](NC(=O)[C@](C)(Cc1ccccc1)NC(=O)[C@H](CO)NC(=O)CNC(=O)[C@H](CCC(=O)O)NC(=O)C(C)(C)NC(=O)[C@@H](N)Cc1c[nH]cn1)[C@@H](C)O)C(C)C)C(=O)N[C@@H](CCC(=O)O)C(=O)N[C@@](C)(Cc1ccccc1)C(=O)N[C@H](C(=O)N[C@@H](C)C(=O)N[C@@](C)(Cc1ccccc1)C(=O)N[C@H](C(=O)N[C@H](C(=O)N[C@@](C)(CCCCN)C(=O)NCC(=O)NCC(N)=O)C(C)C)C(C)C)[C@@H](C)CC) [SEQ ID NO 131] | 11.7 | 14 | 9.9 | 29 | 29 | 29 | 29
H[Aib]EGS[αMeF]TSDV[αMeS]S[αMeF]LEGEAAK([Ahx-Ahx-Lauroyl])E[αMeF]IA[αMeF]VV[αMeK]GG-NH2 (N-terminus assumed; SMILES CCCCCCCCCCCC(=O)NCCCCCC(=O)NCCCCCC(=O)NCCCC[C@H](NC(=O)[C@H](C)NC(=O)[C@H](C)NC(=O)[C@H](CCC(=O)O)NC(=O)CNC(=O)[C@H](CCC(=O)O)NC(=O)[C@H](CC(C)C)NC(=O)[C@](C)(Cc1ccccc1)NC(=O)[C@H](CO)NC(=O)[C@](C)(CO)NC(=O)[C@@H](NC(=O)[C@H](CC(=O)O)NC(=O)[C@H](CO)NC(=O)[C@@H](NC(=O)[C@](C)(Cc1ccccc1)NC(=O)[C@H](CO)NC(=O)CNC(=O)[C@H](CCC(=O)O)NC(=O)C(C)(C)NC(=O)[C@@H](N)Cc1c[nH]cn1)[C@@H](C)O)C(C)C)C(=O)N[C@@H](CCC(=O)O)C(=O)N[C@@](C)(Cc1ccccc1)C(=O)N[C@H](C(=O)N[C@@H](C)C(=O)N[C@@](C)(Cc1ccccc1)C(=O)N[C@H](C(=O)N[C@H](C(=O)N[C@@](C)(CCCCN)C(=O)NCC(=O)NCC(N)=O)C(C)C)C(C)C)[C@@H](C)CC) [SEQ ID NO 132] | 9 | 11 | 7.1 | 28 | 28 | 28 | 28
H[Aib]EGS[αMeF]TSDV[αMeS]S[αMeF]LEGEAAK([γGlu-γGlu-Lauroyl])E[αMeF]IA[αMeF]VV[αMeK]GG-NH2 (N-terminus assumed; SMILES CCCCCCCCCCCC(=O)N[C@@H](CCC(=O)N[C@@H](CCC(=O)NCCCC[C@H](NC(=O)[C@H](C)NC(=O)[C@H](C)NC(=O)[C@H](CCC(=O)O)NC(=O)CNC(=O)[C@H](CCC(=O)O)NC(=O)[C@H](CC(C)C)NC(=O)[C@](C)(Cc1ccccc1)NC(=O)[C@H](CO)NC(=O)[C@](C)(CO)NC(=O)[C@@H](NC(=O)[C@H](CC(=O)O)NC(=O)[C@H](CO)NC(=O)[C@@H](NC(=O)[C@](C)(Cc1ccccc1)NC(=O)[C@H](CO)NC(=O)CNC(=O)[C@H](CCC(=O)O)NC(=O)C(C)(C)NC(=O)[C@@H](N)Cc1c[nH]cn1)[C@@H](C)O)C(C)C)C(=O)N[C@@H](CCC(=O)O)C(=O)N[C@@](C)(Cc1ccccc1)C(=O)N[C@H](C(=O)N[C@@H](C)C(=O)N[C@@](C)(Cc1ccccc1)C(=O)N[C@H](C(=O)N[C@H](C(=O)N[C@@](C)(CCCCN)C(=O)NCC(=O)NCC(N)=O)C(C)C)C(C)C)[C@@H](C)CC)C(=O)O)C(=O)O) [SEQ ID NO 129] | 11.5 | 12 | 11 | 27 | 27 | 27 | 27
H[Aib]EGS[αMeF]TSDV[αMeS]S[αMeF]LEGEAAK([γGlu-γGlu-γGlu-Lauroyl])E[αMeF]IA[αMeF]VV[αMeK]GG-NH2 (N-terminus assumed; SMILES CCCCCCCCCCCC(=O)N[C@@H](CCC(=O)N[C@@H](CCC(=O)N[C@@H](CCC(=O)NCCCC[C@H](NC(=O)[C@H](C)NC(=O)[C@H](C)NC(=O)[C@H](CCC(=O)O)NC(=O)CNC(=O)[C@H](CCC(=O)O)NC(=O)[C@H](CC(C)C)NC(=O)[C@](C)(Cc1ccccc1)NC(=O)[C@H](CO)NC(=O)[C@](C)(CO)NC(=O)[C@@H](NC(=O)[C@H](CC(=O)O)NC(=O)[C@H](CO)NC(=O)[C@@H](NC(=O)[C@](C)(Cc1ccccc1)NC(=O)[C@H](CO)NC(=O)CNC(=O)[C@H](CCC(=O)O)NC(=O)C(C)(C)NC(=O)[C@@H](N)Cc1c[nH]cn1)[C@@H](C)O)C(C)C)C(=O)N[C@@H](CCC(=O)O)C(=O)N[C@@](C)(Cc1ccccc1)C(=O)N[C@H](C(=O)N[C@@H](C)C(=O)N[C@@](C)(Cc1ccccc1)C(=O)N[C@H](C(=O)N[C@H](C(=O)N[C@@](C)(CCCCN)C(=O)NCC(=O)NCC(N)=O)C(C)C)C(C)C)[C@@H](C)CC)C(=O)O)C(=O)O)C(=O)O) [SEQ ID NO 130] | 14.4 | 16 | 13 | 26 | 26 | 26 | 26
H[Aib]EGS[αMeF]TSDV[αMeS]S[αMeF]LEGEAAK([γGlu-Lauroyl])E[αMeF]IA[αMeF]VV[αMeK]GG-NH2 (N-terminus assumed; SMILES CCCCCCCCCCCC(=O)N[C@@H](CCC(=O)NCCCC[C@H](NC(=O)[C@H](C)NC(=O)[C@H](C)NC(=O)[C@H](CCC(=O)O)NC(=O)CNC(=O)[C@H](CCC(=O)O)NC(=O)[C@H](CC(C)C)NC(=O)[C@](C)(Cc1ccccc1)NC(=O)[C@H](CO)NC(=O)[C@](C)(CO)NC(=O)[C@@H](NC(=O)[C@H](CC(=O)O)NC(=O)[C@H](CO)NC(=O)[C@@H](NC(=O)[C@](C)(Cc1ccccc1)NC(=O)[C@H](CO)NC(=O)CNC(=O)[C@H](CCC(=O)O)NC(=O)C(C)(C)NC(=O)[C@@H](N)Cc1c[nH]cn1)[C@@H](C)O)C(C)C)C(=O)N[C@@H](CCC(=O)O)C(=O)N[C@@](C)(Cc1ccccc1)C(=O)N[C@H](C(=O)N[C@@H](C)C(=O)N[C@@](C)(Cc1ccccc1)C(=O)N[C@H](C(=O)N[C@H](C(=O)N[C@@](C)(CCCCN)C(=O)NCC(=O)NCC(N)=O)C(C)C)C(C)C)[C@@H](C)CC)C(=O)O) [SEQ ID NO 128] | 18.2 | 15 | 21 | 28 | 28 | 28 | 28

Results, then the binder that gave them:

cAMP Mean pM GLP-1R (GLP-1 receptor (GLP-1R)) [pM] | cAMP Primary assay EC50 GLP-1R n1 (GLP-1 receptor (GLP-1R)) [pM] | cAMP Primary assay EC50 GLP-1R n2 (GLP-1 receptor (GLP-1R)) [pM] | cAMP Primary assay EC50 GIP-R [1] [nM] | cAMP Primary assay EC50 GIP-R (2nd) [1] [nM] | cAMP Primary assay EC50 Gluc-R (glucagon receptor (GCGR)) [nM] | cAMP Primary assay EC50 Gluc-R (2nd) (glucagon receptor (GCGR)) [nM] | Binder
6 | 7 | 4.9 | 28 | 28 | 28 | 28 | H[Aib]EGS[αMeF]TSDV[αMeS]S[αMeF]LEGEAAK([PEG2′-Lauroyl])E[αMeF]IA[αMeF]VV[αMeK]GG-NH2 [SEQ ID NO 134]
5 | 5.4 | 4.5 | 27 | 27 | 27 | 27 | H[Aib]EGS[αMeF]TSDV[αMeS]S[αMeF]LEGEAAK([PEG2′-PEG2′-Lauroyl])E[αMeF]IA[αMeF]VV[αMeK]GG-NH2 [SEQ ID NO 135]
29.4 | 34 | 25 | 27 | 27 | 27 | 27 | H[Aib]EGS[αMeF]TSDV[αMeS]S[αMeF]LEGEAAK([Ahx-Ahx-Ahx-Lauroyl])E[αMeF]IA[αMeF]VV[αMeK]GG-NH2 (N-terminus assumed; SMILES CCCCCCCCCCCC(=O)NCCCCCC(=O)NCCCCCC(=O)NCCCCCC(=O)NCCCC[C@H](NC(=O)[C@H](C)NC(=O)[C@H](C)NC(=O)[C@H](CCC(=O)O)NC(=O)CNC(=O)[C@H](CCC(=O)O)NC(=O)[C@H](CC(C)C)NC(=O)[C@](C)(Cc1ccccc1)NC(=O)[C@H](CO)NC(=O)[C@](C)(CO)NC(=O)[C@@H](NC(=O)[C@H](CC(=O)O)NC(=O)[C@H](CO)NC(=O)[C@@H](NC(=O)[C@](C)(Cc1ccccc1)NC(=O)[C@H](CO)NC(=O)CNC(=O)[C@H](CCC(=O)O)NC(=O)C(C)(C)NC(=O)[C@@H](N)Cc1c[nH]cn1)[C@@H](C)O)C(C)C)C(=O)N[C@@H](CCC(=O)O)C(=O)N[C@@](C)(Cc1ccccc1)C(=O)N[C@H](C(=O)N[C@@H](C)C(=O)N[C@@](C)(Cc1ccccc1)C(=O)N[C@H](C(=O)N[C@H](C(=O)N[C@@](C)(CCCCN)C(=O)NCC(=O)NCC(N)=O)C(C)C)C(C)C)[C@@H](C)CC) [SEQ ID NO 133]
